Test results from patent US20240409663A1 (CONCEPT TO MEDICINE BIOTECH, published 2024).

Key:
[1] = molecular target: T1, human GPC3-his tag protein (human, UniProt P51654 25-559, limits assumed); assay: SPR Biacore 8K, mAb captured, affinity ranking
T1 construct: recombinant soluble antigen used as analyte in all Biacore runs; also called recombinant GPC3 protein; rhGPC3-His; not shown: His tag
Protocol: To evaluate antigen binding activity, the chimeric antibody's affinity was measured by Biacore 8K. Two concentrations with most close affinity to the chimeric antibody's affinity were chosen for the 12 humanized antibodies' affinity detection. Human GPC3-his tag protein was injected over captured antibody for 3 mins at a flow rate of 30 μl/min. The antigen was allowed to dissociate for 720 s.

mouse GPC3 protein = molecular target: T2, mouse GPC3 protein (mouse, UniProt Q8CFZ4 25-558, limits assumed); assay: ELISA, coated mouse GPC3
T2 construct: protein coated on plates in the cross species ELISA
T2 sequence (Q8CFZ4 25-558 limits assumed): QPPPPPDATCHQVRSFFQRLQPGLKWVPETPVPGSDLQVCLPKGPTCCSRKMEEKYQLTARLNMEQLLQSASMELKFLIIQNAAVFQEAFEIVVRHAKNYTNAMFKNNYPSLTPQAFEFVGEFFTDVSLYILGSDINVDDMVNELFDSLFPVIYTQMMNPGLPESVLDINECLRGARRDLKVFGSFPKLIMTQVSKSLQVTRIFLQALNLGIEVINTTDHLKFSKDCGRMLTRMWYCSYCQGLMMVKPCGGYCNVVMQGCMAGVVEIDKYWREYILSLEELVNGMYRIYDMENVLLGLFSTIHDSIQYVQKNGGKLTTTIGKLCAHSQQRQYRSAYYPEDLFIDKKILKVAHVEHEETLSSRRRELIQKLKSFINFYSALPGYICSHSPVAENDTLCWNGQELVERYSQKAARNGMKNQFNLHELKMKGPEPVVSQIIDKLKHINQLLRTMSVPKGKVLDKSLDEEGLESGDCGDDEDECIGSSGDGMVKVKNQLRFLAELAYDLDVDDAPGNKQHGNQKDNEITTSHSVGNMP
Protocol: (§1) ELISA testing was carried out to evaluate the binding of chimeric antibodies to human, mouse and cynomolgus GPC3, respectively.
(§2) Briefly, microtiter plates were coated with human, mouse and cynomolgus GPC3 proteins at 1 μg/ml in PBS, 100 μl/well at 4° C. overnight, then blocked with 150 μl/well of 1% BSA. Three-fold dilutions of chimeric antibodies starting from 9 μg/ml were added to each well and incubated for 1 hour at 37° C. The plates were washed with PBS/Tween and then incubate with mouse-anti-human IgG Fc antibody conjugated with Horse Radish Peroxidase (HRP) for 30 mins at 37° C. After washing, the plates were developed with TMB substrate and analyzed by spectrophotometer at OD 450 nm. The 52H5D3B8 antibody bound to human, cynomolgus GPC3 and mouse GPC3 (FIG. 3 and Table 4).

human GPC3 on cells [2] = molecular target: T3, human GPC3 on cells (human, UniProt P51654 25-554); assay: FACS, GPC3-CHOK1 cells
T3 construct: whole, on cells; over-expressed on CHOK1 cells or endogenous on HEPG2, Hep3B and Huh-7 hepatocellular carcinoma cells; the cell line is named under assay; also called GPC3-CHOK1 cells; human GPC3 over-expressed CHOK1 cells
Protocol: (§3) Cell-based binding: FACS was used to evaluate the binding activity of 52H5D3B8 chimeric mAbs with comparison to a known GPC3 antibody GC33 (Chugai Pharmaceutical) on human GPC3 over-expressed CHOK1 cells, HEPG2 cells, Hep3B cells and Huh-7 cells.
(§4) Briefly, GPC3-CHOK1 cells, HEPG2 cells, Hep3B cells or Huh-7 cells were firstly incubated with Fc blocking reagent at 4° C. for 15 mins. Cells were washed by FACS buffer and divided to each well with 3-fold serially diluted 52H5D3B8 chimeric mAbs or GC33 mAb starting at 30 μg/mL at 4° C. for 60 mins. Cells were washed by FACS buffer and fixed with 2% PFA at RT for 15 mins. […] Samples were washed twice with FACS buffer.

[3] = molecular target: T1, human GPC3-his tag protein; assay: SPR Biacore 8K, mAb captured on CM5, GPC3-his dilution series
Protocol: The binding of the chimeric 52H5D3B8 mAb to human GPC3-his was tested with Biacore using a capture method. The 52H5D3B8 mAb was captured using CM5 sensor chip. A serial dilution of human GPC3-his tag protein was injected over captured antibody for 2 mins at a flow rate of 30 μl/min. The antigen was allowed to dissociate for 360 s. All the experiments were carried out on a Biacore 8K. Data analysis was carried out using Biacore 8K evaluation software.

human GPC3 on cells [4] = molecular target: T3, human GPC3 on cells; assay: FACS, HEPG2 cells
Protocol: as §3, §4

human GPC3 on cells [5] = molecular target: T3, human GPC3 on cells; assay: FACS, GPC3-CHOK1 cells; remark: listed apart in the source
Protocol: (§5) To evaluate the antigen binding property, the humanized antibodies were analyzed for their binding to human GPC3 over-expressed CHOK1 cells and Huh-7 cells by FACS. Briefly, GPC3-CHOK1 cells and Huh-7 cells were firstly incubated with Fc blocking reagent at 4° C. for 15 mins. Cells were washed by FACS buffer and divided to each well with 4-fold serially diluted humanized antibodies starting at 10 μg/mL at 4° C. for 60 mins. Cells were washed by FACS buffer and fixed with 2% PFA at RT for 15 mins. […] As different plates might affect the EC50 of 52H5D3B8-VH+VL, the 12 humanized antibodies were separated into two plates.

human GPC3 on cells [6] = molecular target: T3, human GPC3 on cells; assay: FACS, Huh-7 cells
Protocol: as §5

cynomolgus GPC3 protein = molecular target: T4, cynomolgus GPC3 protein (cynomolgus, UniProt A0A2K5VK50 24-553, The natural protein carries heparan sulfate chains and may be cleaved by furin between the alpha (24-357) and beta (358-553) subunits, which stay disulfide-linked. It is written here as one …); assay: ELISA, coated cynomolgus GPC3
T4 construct: protein coated on plates in the cross species ELISA
Protocol: as §1, §2

Kd [1]: 1.41 nM
koff [1]: 0.00049 s⁻¹
kon [1]: 347000 M⁻¹ s⁻¹
EC50 (mouse GPC3 protein): 4.95 µg/mL
EC50 (human GPC3 on cells [2]): 0.0922 µg/mL
Kd [3]: 0.843 nM
koff [3]: 0.000466 s⁻¹
kon [3]: 552000 M⁻¹ s⁻¹
EC50 (human GPC3 on cells [4]): 0.111 µg/mL
EC50 (human GPC3 on cells [5]): 0.0479 µg/mL
EC50 (human GPC3 on cells [6]): 0.0563 µg/mL
EC50 (cynomolgus GPC3 protein): 0.0152 µg/mL
B1: 52H5D3B8 chimeric mAb (antibody, V domains shown)
VH: QVQLQQSGAELVRPGASVKLSCKALGYTFTDYEMHWVKQTPVHGLEWIGAIHPGSGGTAYNQKFKGKATLTADKFSSTGYMELSSLTSEDSAVYYCTRFYSYAYWGQGTLVTVSA
VL: DVVMTQTPLSLPVSLGDQASISCRSSQSLVHSNGNTYLQWYLQKPGQSPKLLIYKVSNRFSGVPDRFSGSGSGTDFILKISRVEAEDLGVYFCSQSIHVPYTFGGGTKLEIK
notes: also called 52H5D3B8-VH+VL; chimeric 52H5D3B8 mAb
